Measured values published in patent US20260209265A1 (NAVIGO PROTEINS, published 2026).

What was measured:
[1] = target: Natalizumab (IgG4); experiment: SPR (Bruker SPR-32, 25 C, Langmuir 1:1 model)
Excerpt: (§1) A sensor chip (Bruker) was equilibrated with surface plasmon resonance (SPR) running buffer. Surface-exposed carboxylic groups were activated by passing a mixture of EDC and NHS to yield reactive ester groups. 700-1500 RU on-ligand were immobilized on a flow cell, off-ligand was immobilized on another flow cell. Injection of ethanolamine after ligand immobilization removes non-covalently bound Ig binding protein. Upon ligand binding, protein analyte was accumulated on the surface increasing the refractive index. This change in the refractive index was measured in real time and plotted as response or resonance units (RU) versus time. The analytes were applied to the chip in serial dilutions with a suitable flow rate (pl/min). After each run, the chip surface was regenerated with regeneration buffer and equilibrated with running buffer. The control samples were applied to the matrix. Regeneration and re-equilibration were performed as previously mentioned. Binding studies were carried out by the use of the Bruker SPR-32 at 25° C.; data evaluation was operated via the Bruker evaluation software, provided by the manufacturer, by the use of the Langmuir 1:1 model (RI=0).

[2] = target: T1, Panitumab (IgG2); experiment: SPR (Bruker SPR-32, 25 C, Langmuir 1:1 model)
T1 construct: also called hIgG2
Excerpt: as §1

[3] = target: T2, Octagam (IgG sample); experiment: dynamic binding capacity at 10% breakthrough; ligand coupled to agarose beads, Octagam 2.2 mg/ml loaded
T2 construct: also called hIgG

[4] = target: T2, Octagam (IgG sample); experiment: DBC10 of the immobilized ligand after 50 h in 1 M NaOH, in % of the DBC10 at 0 h; Octagam loaded, 6 min residence time
[5] = target: T2, Octagam (IgG sample); experiment: step pH elution with 0.1 M acetic acid of hIgG (Octagam) bound to the immobilized ligand; percent of the bound IgG released at pH 3.7
[6] = target: T2, Octagam (IgG sample); experiment: step pH elution with 0.1 M acetic acid of hIgG (Octagam) bound to the immobilized ligand; percent of the bound IgG released at pH 4.0

Chain of Natalizumab (IgG4) (VH, as listed by the source, chain 1 of 2): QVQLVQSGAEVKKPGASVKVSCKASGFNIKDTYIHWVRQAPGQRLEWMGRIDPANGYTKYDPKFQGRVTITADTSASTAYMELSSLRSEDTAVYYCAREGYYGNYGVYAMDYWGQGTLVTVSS
Chain of Natalizumab (IgG4) (VL, as listed by the source, chain 2 of 2): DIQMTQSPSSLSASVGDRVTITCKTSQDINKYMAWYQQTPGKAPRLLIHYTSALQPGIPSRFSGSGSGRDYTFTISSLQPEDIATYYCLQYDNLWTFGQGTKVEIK

B1: 224777 (SEQ ID NO: 7) (designed binder)
chain: AQFDKIAQIAFYAILHLPNLTEEQRHAFIQSLRDDPSVSKEILAEAKKLNDAQAPKIAAQFDKIAQIAFYAILHLPNLTEEQRHAFIQSLRDDPSVSKEILAEAKKLNDAQAPKIAAQFDKIAQIAFYAILHLPNLTEEQRHAFIQSLRDDPSVSKEILAEAKKLNDAQAPKIAAQFDKIAQIAFYAILHLPNLTEEQRHAFIQSLRDDPSVSKEILAEAKKLNDAQAPKIAAQFDKIAQIAFYAILHLPNLTEEQRHAFIQSLRDDPSVSKEILAEAKKLNDAQAPK
notes: also called 224777 pentamer
Kd [1]: 2 nM | Kd [2]: 5.8 nM | DBC10% 6 min residence time [3]: 61 mg/mL | Remaining IgG binding capacity after 50 h, 1 M NaOH (%) [4]: 76% | Amount eluted IgG pH 3.7 (%) [5]: 0% | Amount eluted IgG pH 4.0 (%) [6]: 100%
